Experimental data reported in patent US20130302346A1 (LEXICON PHARMACEUTICALS, published 2013).

Legend:
Human NOTUM = molecular target: T1, Human NOTUM (human, UniProt Q6P988 20-496); test: cell-based or functional assay
T1 sequence: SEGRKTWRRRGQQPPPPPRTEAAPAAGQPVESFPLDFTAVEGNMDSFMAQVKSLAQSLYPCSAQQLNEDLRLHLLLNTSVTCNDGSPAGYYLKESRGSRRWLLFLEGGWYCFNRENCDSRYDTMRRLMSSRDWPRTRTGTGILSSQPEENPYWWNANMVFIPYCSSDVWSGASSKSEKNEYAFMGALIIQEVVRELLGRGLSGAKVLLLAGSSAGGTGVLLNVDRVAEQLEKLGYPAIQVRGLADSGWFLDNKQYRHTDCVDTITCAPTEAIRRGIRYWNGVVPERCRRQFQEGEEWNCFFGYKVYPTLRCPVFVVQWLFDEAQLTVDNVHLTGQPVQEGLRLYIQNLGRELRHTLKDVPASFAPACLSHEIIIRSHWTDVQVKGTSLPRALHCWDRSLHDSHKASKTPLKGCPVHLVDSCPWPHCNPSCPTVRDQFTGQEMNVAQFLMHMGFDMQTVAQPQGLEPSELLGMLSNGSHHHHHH

Mouse NOTUM = molecular target: T2, Mouse NOTUM (mouse, UniProt Q8R116 20-503); test: ELISA (column 'Mouse NOTUM binding')
T2 construct: also called recombinant mouse NOTUM
T2 sequence: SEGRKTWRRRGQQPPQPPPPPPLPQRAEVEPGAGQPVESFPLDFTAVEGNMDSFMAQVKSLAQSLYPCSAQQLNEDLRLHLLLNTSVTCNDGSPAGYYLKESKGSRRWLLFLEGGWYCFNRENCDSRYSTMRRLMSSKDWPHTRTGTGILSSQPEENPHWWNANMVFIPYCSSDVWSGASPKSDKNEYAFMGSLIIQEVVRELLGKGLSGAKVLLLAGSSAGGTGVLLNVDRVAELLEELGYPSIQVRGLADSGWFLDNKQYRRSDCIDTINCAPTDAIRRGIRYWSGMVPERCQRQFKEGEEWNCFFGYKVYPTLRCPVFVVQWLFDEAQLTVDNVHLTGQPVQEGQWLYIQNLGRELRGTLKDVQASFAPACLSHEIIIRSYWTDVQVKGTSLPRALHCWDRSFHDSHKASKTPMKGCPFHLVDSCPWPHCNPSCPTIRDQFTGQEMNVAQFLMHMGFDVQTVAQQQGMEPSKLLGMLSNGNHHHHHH

H-M-H = molecular target: T3, H-M-H; test: ELISA on conditioned medium of HEK293F transfected with the NOTUM construct (Example 6.7)
T3 construct: Drawn on the sheet as human up to the M177 line, a mouse middle segment, then a human C-terminal part; Conditioned medium from transfected HEK293F; also called Human-mouse-human chimeric NOTUM
T3 single chain: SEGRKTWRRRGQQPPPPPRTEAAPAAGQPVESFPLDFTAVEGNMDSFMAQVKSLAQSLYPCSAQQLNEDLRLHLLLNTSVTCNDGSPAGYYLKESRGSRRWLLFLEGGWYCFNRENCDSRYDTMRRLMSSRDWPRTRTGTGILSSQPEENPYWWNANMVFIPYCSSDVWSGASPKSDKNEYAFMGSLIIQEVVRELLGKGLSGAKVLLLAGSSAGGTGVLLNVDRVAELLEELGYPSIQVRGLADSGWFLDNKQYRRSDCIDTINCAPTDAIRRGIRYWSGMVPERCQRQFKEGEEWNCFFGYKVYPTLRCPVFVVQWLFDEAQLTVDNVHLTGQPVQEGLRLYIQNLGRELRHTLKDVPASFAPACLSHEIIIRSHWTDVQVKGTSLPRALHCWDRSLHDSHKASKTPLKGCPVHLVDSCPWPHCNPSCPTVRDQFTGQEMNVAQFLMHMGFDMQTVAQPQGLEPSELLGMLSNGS
Text: (§1) The sequences of those proteins are shown in Section 7 (Table of Sequences). The conditioned media were used in ELISA format to determine antibody specificity. […] Within this region, mouse and human NOTUM differ at five positions (R115K, D141S. R150K, R154H, and Y171H, based on the human sequence numbering). Human NOTUM point mutants were generated by transient transfection of constructs expressing human NOTUM with the mouse amino acid at each of these five positions and the point mutants were all shown to be functional in the OPTS assay.

M-H-M = molecular target: T4, M-H-M; test: as above
T4 construct: Drawn on the sheet as mouse up to the M177 line, a human middle segment, then a mouse C-terminal part; Conditioned medium from transfected HEK293F; also called Mouse-human-mouse chimeric NOTUM
T4 single chain: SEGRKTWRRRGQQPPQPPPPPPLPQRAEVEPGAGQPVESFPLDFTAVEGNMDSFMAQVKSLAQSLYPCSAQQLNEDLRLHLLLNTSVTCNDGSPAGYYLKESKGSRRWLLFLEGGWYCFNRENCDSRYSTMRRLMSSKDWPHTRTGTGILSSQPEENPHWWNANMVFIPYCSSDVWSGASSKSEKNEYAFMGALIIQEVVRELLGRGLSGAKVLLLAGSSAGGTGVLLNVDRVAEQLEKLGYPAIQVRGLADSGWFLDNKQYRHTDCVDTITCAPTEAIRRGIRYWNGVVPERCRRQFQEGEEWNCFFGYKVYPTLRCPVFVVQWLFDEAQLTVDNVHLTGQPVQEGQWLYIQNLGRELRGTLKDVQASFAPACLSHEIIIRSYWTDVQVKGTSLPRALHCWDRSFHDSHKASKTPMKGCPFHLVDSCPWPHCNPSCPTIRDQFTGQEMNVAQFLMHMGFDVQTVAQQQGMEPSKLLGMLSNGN
Text: as §1

H(Q47) = molecular target: T5, H(Q47); test: as above
T5 construct: Drawn on the sheet as a signal peptide (SP) followed by human NOTUM starting at Q47; CD33 signal peptide'; also called Human NOTUM (delta 1-46) with CD33 signal peptide
T5 single chain: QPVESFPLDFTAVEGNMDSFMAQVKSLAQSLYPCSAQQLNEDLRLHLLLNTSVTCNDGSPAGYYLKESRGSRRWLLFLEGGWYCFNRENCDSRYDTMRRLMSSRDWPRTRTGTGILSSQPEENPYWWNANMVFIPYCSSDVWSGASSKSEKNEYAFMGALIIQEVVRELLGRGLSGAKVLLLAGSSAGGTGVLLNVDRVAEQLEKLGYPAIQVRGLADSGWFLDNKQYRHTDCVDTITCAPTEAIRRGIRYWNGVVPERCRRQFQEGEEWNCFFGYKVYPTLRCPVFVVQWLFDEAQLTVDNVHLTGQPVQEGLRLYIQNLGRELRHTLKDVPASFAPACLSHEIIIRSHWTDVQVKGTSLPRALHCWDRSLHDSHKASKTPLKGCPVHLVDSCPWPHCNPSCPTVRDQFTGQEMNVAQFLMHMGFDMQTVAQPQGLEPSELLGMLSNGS
Text: as §1

Row | Binder | OPTS IC50 (nM; human NOTUM) (Human NOTUM) | Wnt signaling IC50 (nM; human NOTUM) (Human NOTUM) | binding result (Mouse NOTUM) | binding result (H-M-H) | binding result (M-H-M) | binding result (H(Q47))
1 | MAb 1.802 (antibody, V domains shown, Mouse monoclonal antibody from Campaign 1 (raised against human NOTUM), IgG1) VH: EVQLVESGGGLVKPGGSLKLSCAASGFTFSDYGMHWFRQAPEKGLEWVAYISSGSRTVYYADTVKGRFTISRDNAKNTLSLQMTSLRSEDTAMYYCARKHYNGGYFDVWGTGTTVTVSS VL: DIVLTQSPASLAVSLGQRATISCRASKIVSTSGYSYMHWYQQKPGQPPKLLIYLASNLESGVPARFSGSGSGTDFTLNIHPVEEEDAATYYCQHSRELPPTFGSGTKLEIKR | 6.44 nM | 5.71 nM | no binding | binds | no binding | binds
2 | MAb 1.846 (antibody, IgG2b, V domains shown, Mouse monoclonal antibody from Campaign 1, IgG2b) VH: EVQLVESGGDLVKPGGSLKLSCAASGFTFSDYGMHWLRQAPEKGLEWVAYISSGSTTLSYANTMKGRFTISRDNAKKTLSLQMTSLRSEDTAIYYCARKNYNGGYFDVWGTGTTVTVSS VL: DIVLTQSPASLVVSLGQRATISCRASKSVSESGYSYMHWYQQKPGQPPKLLIYLASNLESGVPARFSGSGSGTDFTLNIHPVEEGDATTYYCQHSRVLPPTFGSGTKLEIKR | 10.1 nM | 1.7 nM | no binding | binds | no binding | binds
3 | MAb 1.815 (antibody, IgG1, V domains shown, Mouse monoclonal antibody from Campaign 1, IgG1) VH: DVQLLESGGGLVQPGGSRKLSCAASGFTFSDFGMHWVRQAPEKGLEWVAYSSSGGTTVYYADTVKGRLTLSRDNSKNTLFLEMTSLRSEDTAMYYCARASYDGGYFDCWGQGTSLTVSS VL: DIVLTQSPASLAVSLGQRATISCRASKSVSTSGYSYIHWYQQKPGQPPKLLIYLASDLESGVPARFSGSGSGAAFTLNIHPVEEEDAATYYCHHSRELPFTFGSGTKLEIKR | 7.62 nM | 6.88 nM | no binding | binds | no binding | binds
